# Assay results as given in patent US11268099.
# Tests used:
# [1] = test system: 2G12 (anti-HIV-1 gp120 carbohydrate-binding monoclonal antibody); assay: BLI; conditions: N are Man9-derivatized dU (3 sites); 5' A5 spacer [26,33,39]; 1:1 global fit; kon 2.04e4 /M/s, koff 2.53e-4 /s
# [2] = test system: 2G12 (anti-HIV-1 gp120 carbohydrate-binding monoclonal antibody); assay: filter
sequence,measurement,setting,value
AAAAACGGGTACGGGAGACCCACGGTGCAACCTACGGATAAAGCACACAGGAGACGACAAG [Clone 1 biotinylated glycoDNA (BLI)],Kd,[1],12.4 nM
CGGGTACGGGAGACCCACAGTGCAACCTACGGATAAAGCACACAGGAGACGACAAG [Clone 2 glycoDNA],Kd,"[2]; all T in random region are EdU-Man9 (3 sites), 20 mM Tris pH 7.5, 150 mM NaCl, 4 mM MgSO4, BSA, binding at 37 C also shown in FIG. 11",1.7 nM
CGGGTACGGGAGACCCATGGTGCAACCTACGGATAAAGCACACAGGAGACGACAAG [Clone 7 glycoDNA],Kd,"[2]; all T in random region are EdU-Man9, moderate binding, Mg2+ buffer",12 nM
